Experimental data as given in the supplement of paper PMC12042874.
± gives the uncertainty stated by the source.

test: amyloid nucleation score (Sup35N fusion, yeast selection) (log enrichment); library NNK3; higher = more nucleation; inactive = no reads after selection
Procedure, shortened: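 The nucleation score is a DiMSum log enrichment of output over input reads, centred on the mode score of non-aggregating sequences. Sequences under 100 input reads were excluded, and reads came from Illumina sequencing of plasmid inserts. Psi-negative yeast expressing Sup35N fused to peptides of 20 random codons were induced with 100 μM copper sulfate for 24 hours and grown 7 days at 30°C on medium lacking adenine and uracil. Random libraries had three technical output replicates.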

Substance	amyloid nucleation score
YSLVYAYMESTMYYCLGLRM	inactive
VRGTGVVDRLGLGRWDRPEG	inactive
RSLTLKLTGGVLALMRS	inactive
GFWWVTRPSTPARLSSMSPQ	inactive
NYEQCNSHSCMIFLFRTDYS	inactive
LSSLVSSSTSCWLWIRTNRL	inactive
IYTNWYEFRV	inactive
FRMASS	inactive
LQCLVSAKCNFCMYR	0.869 ± 0.19
LFCCPDLFRRG	2.4 ± 0.09
FDRDWDMFFVRIVSQCGMLW	inactive
VLRTTECVQG	inactive
VPGFLGLTLHLLRREHQQNH	inactive
VCWSHNPRPTDDY	inactive
NFLLDSLSSETGFRCY	-0.607 ± 1
AVWNFTQFYAENEGHNVSLS	inactive
NRTSLCKEDLVRVSFDGYLL	inactive
IQNANVRHYKRHRKFLTFIS	1.27 ± 0.11
GSVSYLNMTVFFSTVLFIYT	inactive
LAWIVCDCIGQCCTFIVRVW	inactive
YATACGMILQKVVGKLTLLA	-0.395 ± 0.46
VVTVGVMT	inactive
LGWLVGSGKVNRVRPGSLNS	inactive
VKRGCCLVICWARFNVSEAH	inactive
HMFRVVPSLIRI	inactive
VWVTVRCLNYRPSYMPYRTR	0.651 ± 0.32
SRVWTISWLNDGVGGRTQAE	inactive

Substance	amyloid nucleation score
DLGYVLLMTHSRIMMCLHHY	inactive
KDPEVQVRK	inactive
YTLVDRSICT	inactive
DISIGQRVRCTIFSGIGPLT	-0.913 ± 2.5
THFQEPLSESGDRCLDDGYL	inactive
RTYLDYGVNALLCPLTWGFS	-0.071 ± 0.73
GNFMNNGRLVASPLLREVCC	inactive
YIHIGAM	inactive
GYCGQVCWFNAKSWMKRMTF	inactive
EGILPYLRYLFRNLSVGCCW	inactive
RSSFVWTSRHFVV	inactive
LDRVSTVGSKNLFQRCCKIS	inactive
TVVLSWPMYAECKFSCICMT	1.38 ± 0.1
SPGGLGFSVNLHCSTYFRPS	1.24 ± 0.14
SNESLWVSLIICFVTHWFQI	inactive
DHGSIRRMGELHWMQLR	inactive
DSTEVRYQNPMTTLRGVVFW	inactive
LSNFITTLSTWITLSI	inactive
GRTWFKYPHSDSGCSFWLTA	inactive
YMCKCSYVEMTHSA	inactive
NRGFYQ	inactive
ILSCPSS	inactive
SYSIWSLLEIDF	inactive
YMRSIGSIFFILYCMQSAHG	0.121 ± 0.33
VYSTSDAEVIVSVSRRGDFA	inactive
MWDIGGARAKDCEGLSVNCI	inactive
RLHRLKDFTRNGCEYSSHLS	inactive

Substance	amyloid nucleation score
MSRTKPLGF	inactive
SFFLDILRVWYYNVPNVPAR	inactive
SNPGAMSMCEYGGLFSRWLY	-0.516 ± 0.96
FSEIVDYRGGIYGSYLNESM	inactive
YKDIRCGWLMFGVANLQ	inactive
PSCMSDCISIIYS	inactive
LGRYWHVIKLDLVPHMKWCE	inactive
EDYLFHLLRDPRRTGWLIWF	inactive
PGTIYVGCRLLIYGTNTADL	inactive
LVGNHVSVAIISLVPLSFPH	2.06 ± 0.067
IEDEFEAMSHCLECRNFRKL	inactive
VWVIVKTNLLLVAGQGGAFG	0.693 ± 0.15
SIESPSNIMS	inactive
LTRLSRNHVVRWRYIREGGW	inactive
VHLNPEN	inactive
LLCLLQEIGFVAITGWI	inactive
WMDRLFVSVTAVWRQPDVGI	1.42 ± 0.11
VRCVGGHSHDHWETVWGVFG	inactive
CFVGLRSGAVSCWGQGNYVA	inactive
VSLYCVIWIR	1.22 ± 0.094
AIELIFVLWAFAHCAPCFEL	inactive
ATRSLINQQCCRNYASKVLN	inactive
RIGQMFLILVFKGLL	inactive
NRPTAVSFCK	inactive
YSEKDLIHRRIFVVNGRS	1.13 ± 0.12
